Measured values published in the supplement of paper PMC12042874.
± gives the uncertainty stated by the source.

test: amyloid nucleation score (Sup35N fusion, yeast selection) (log enrichment); library NNK1; higher = more nucleation; inactive = no reads after selection
Outline: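 Sup35N was fused to peptides of 20 random codons and expressed in psi-negative yeast, which were induced with 100 μM copper sulfate for 24 hours and then grown on medium lacking adenine and uracil for 7 days at 30°C. Plasmid inserts from input and output were sequenced on Illumina. The nucleation score is the DiMSum log enrichment of output over input reads, centred on the mode score of non-aggregating sequences. Sequences with under 100 input reads were left out, and random libraries had three technical output replicates.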

Substance	amyloid nucleation score
TLSGVYTFCMFLVWVDSASG	0.843 ± 0.62
TLVQCVSWISGSDKSHRMTI	-1.52 ± 2.7
TLVVGMRLDNHDHA	1.14 ± 0.21
TMAFVKLLNGSGNLEILKFS	0.785 ± 0.44
TMIGILWCSYINVALYSGGL	1.22 ± 0.28
TMLLDAYHEFKWANTNLFWL	-0.263 ± 0.93
TMSSSNQSQMFPSVIYSEGH	-0.209 ± 0.9
TNLLSLMMFDSKCIISEGIM	-0.567 ± 1.7
TNNSWCFFLRLGYT	5.05 ± 0.076
TNPYSWNLYCGFLNTDWVV	0.787 ± 0.85
TNRVTGSLWDEVWSDPGPEC	-1.28 ± 0.8
TNSFSSSLRMV	0.076 ± 0.88
TNWAVKGWAVECRRHSGPNT	1.45 ± 0.79
TNWVWELL	-0.544 ± 1.9
TNYQRIQHA	-0.903 ± 2.4
TPSIYRNVCDIEGLLSSRYL	0.36 ± 0.54
TPTTLKDYYPRAGNINRMTY	-0.15 ± 0.28
TPYLDFI	1.12 ± 0.56
TQKHCY	0.326 ± 0.33
TQVWKPLHKTSLHYSDREVS	-0.111 ± 0.38
TRFNTSEDHSLDNIEA	-0.542 ± 0.93
TRFVVVVMIISQLRCLLCDM	0.61 ± 1
TRISFRKGV	-0.54 ± 0.5
TRKPEPINPQSIWSTVLQHE	0.54 ± 0.48
TRLSRERINRDWEREGCLTP	0.798 ± 0.81

Substance	amyloid nucleation score
TRLVVLRSW	1.14 ± 0.98
TRNSDASGNCCVTGRDV	-0.849 ± 0.45
TRNVMFINVALHFSNLVGWC	4.21 ± 0.12
TRRFR	-0.181 ± 0.41
TRSDQPTILTSLYLERNYSP	-0.321 ± 0.56
TRSKMALGVQYHGLMQLYCR	0.121 ± 0.31
TRSVWIEDRVTRAARFKGQR	-0.116 ± 0.47
TRTGSRHPWRCLSDIASCNG	0.466 ± 0.32
TRYLRIWSPSQMICMWGRFL	0.145 ± 0.5
TSCPRYECNENTSVYGSLDT	inactive
TSEQYESLCWVSSLRRIFQK	0.043 ± 0.48
TSFGYLLVSRNWCNSWCIMS	3.01 ± 0.079
TSFLWLLTFERFD	inactive
TSGSCSACCLWVRGDNETFM	7.881 ± 0.048
TSHSETSEAFRRFSAPFLAN	0.497 ± 0.64
TSIFDEMSHVEEVRRTMIRG	0.209 ± 0.35
TSREGRGSLSVWSG	-0.19 ± 0.81
TSSAFVCVENTLWTEVVEPM	0.411 ± 0.55
TSSCFMESRLK	0.179 ± 0.59
TSTSIGRVQCLYDSWRRTAW	0.73 ± 0.62
TSVVVRSPRGVVEPKHYFCI	-1.19 ± 2.4
TSYNIMFQ	-0.584 ± 1.2
TTEFIGES	1.25 ± 0.73
TTHLSHIYLLDASYNYKDSR	0.27 ± 0.36
TTLIILDTYLNMIVVGTLYW	0.11 ± 0.22

Substance	amyloid nucleation score
TTPIEAV	-0.178 ± 1.2
TTWRMIFVVKRLHWFGLK	-0.445 ± 0.46
TVDKTYFFYIVDCNVDKPGD	1.08 ± 0.59
TVLGQH	-0.058 ± 0.29
TVLGTSQGSCGWSNPSRNAR	-0.455 ± 1.7
TVMVGLKVCAHQLDSM	1.28 ± 0.4
TVNGLPN	0.885 ± 0.92
TVNSWRNLMSDLSWFSAVIL	-0.657 ± 0.39
TVRRVGISWNWYIKTLYGSD	-1.12 ± 0.88
TVRSYRSGRCYNFIVNRERA	-0.177 ± 0.75
TVSVANSKWSDTVINMRLDR	5.72 ± 0.065
TVTYLLCYYDSALYRCATGL	5.553 ± 0.052
TVWSHCIEFFGHLRKLRSLL	1.84 ± 0.5
TVYIG	0.258 ± 0.3
TWIFVSLACKAL	-0.045 ± 0.4
TWNRRVRVYTGYCPNVGMSL	4.94 ± 0.059
TWYLMMENVS	4.69 ± 0.056
TYCNQWIGCMGYRKKHEPR	-0.077 ± 0.41
TYDVMTLGENVKGLCISARC	-0.412 ± 0.42
TYGKIMVN	-0.418 ± 1.5
TYLIKMSVT	0.313 ± 0.39
TYLQRCSIFRPSLTSMG	0.273 ± 0.45
TYQRRL	-0.414 ± 1.1
TYRLIRSFC	0.368 ± 0.4
VAEAFTIGWGGNESSSVRSS	-0.348 ± 0.52

Substance	amyloid nucleation score
VAFWLLC	0.219 ± 0.38
VAGAVNNSWWGLSNVARAKR	0.082 ± 0.54
VAKAPSNSCTLCHDWYGRST	0.101 ± 1.4
VALDIGFSWALSRLWLKRHF	0.095 ± 0.29
VALIRGRD	0.292 ± 0.32
VAMLQFASFQSSW	-0.323 ± 0.39
VANTCWQMMFLRMLSYFLRV	0.687 ± 0.44
VARFCNGYTHNIAMCTGIQR	-2.44 ± 2.4
VARYSDRSNTEAYRVRFLGI	1.28 ± 0.23
VATPISLGFPPWTSNVHAHT	inactive
VATPSSCVDSQAKTRMTGTL	-0.112 ± 0.44
VAVRTPMSVCSVLLGSGSGL	-0.162 ± 1.1
VAVTSSMFFRPNFNLNTVLS	3.69 ± 0.067
VCEISLN	0.016 ± 1.2
VCFTYNFSPQLVL	0.098 ± 0.38
VCINFHYLVGINVIRRNDWV	4.48 ± 0.1
VCLRLARWILHQKHTYVYWY	inactive
VCNIS	0.985 ± 0.42
VCSGTFGYHRRYEWDWVLKG	0.215 ± 1.2
VCSQHGGWISGGKGSILARS	-0.417 ± 0.99
VCTCTLVVDSTLCLGSVGTA	2.04 ± 0.18
VCVGFIGDVIRLERSANSVL	-0.049 ± 0.3
VCVGNAETYMERNYV	0.531 ± 0.4
VCVLFELMSKVKGQKARKDQ	0.425 ± 1.1
VCYSLSLNISFSFRNVVVRS	0.899 ± 0.58

Substance	amyloid nucleation score
VDDHDPKIGSMLPSIPNGVQ	-0.571 ± 0.42
VDFDPNVLFKWTDMKRSRSR	1.66 ± 0.48
VDLIPLEGVRGAWLQASQRG	0.664 ± 0.49
VDLVGYVVGIFNVYKVVEDT	-0.321 ± 0.23
VDRLAEMHTLEWARSVRLSV	0.55 ± 0.92
VDSRSWTNLMWSRVAKWLMG	0.155 ± 0.51
VDSVLIWIMFAAMGSKCPG	1.77 ± 0.23
VDVMRVVLNLNCSRTSVIYM	5.938 ± 0.048
VDYSLSENSTVLLNIWDL	-0.008 ± 0.46
VECLKV	0.387 ± 0.52
VEEGNMRCSNLMTLEHTTHK	-0.582 ± 0.42
VEGALGYGCASC	0.768 ± 0.65
VEIPHKKWNYVSHLLLSIHG	0.307 ± 0.3
VEMGIIFR	-0.339 ± 0.24
VEPSYMFGYVVDWEHMVLKS	-2.11 ± 2.4
VEQSFTAAPFQDVLF	-0.38 ± 0.32
VEVLWVEDGSQF	-0.559 ± 0.31
VFAICGSTCVGEKGTWPGEG	-0.263 ± 1.4
VFGAFSESLLYSR	0.51 ± 0.35
VFHFYILMNCESCVTGGVPV	7.938 ± 0.054
VFLHVES	1.85 ± 0.59
VFLMYRLMH	inactive
VFNWTHPWLSQH	-0.047 ± 0.78
VFRWRNKLRNNLCRGKYYWT	2.08 ± 0.43
VFSDTPALCIDGLKLFAMVR	-0.182 ± 0.3

Substance	amyloid nucleation score
VFSIIRPGMASSLHGQVQIA	1.28 ± 0.69
VFSKNFRVVIFTSNRSLFNK	0.595 ± 0.72
VFVTGLCSEDVTIYSTM	-2.44 ± 2.4
VFVVSVNHRMIVNFTSCLNV	inactive
VFYKYRQGARYDFF	0.227 ± 0.89
VFYQLCDWYNFGF	5.68 ± 0.1
VGFRGVLQIPGLSFPEALVR	0.024 ± 0.46
VGICMWHN	0.718 ± 0.21
VGISMHFRSRENFQSN	inactive
VGITDSNRVLILSGQIHGVM	0.6 ± 0.46
VGKELLLSLRYSNWVCLDWF	-0.715 ± 1.4
VGLISALANTGMFRTSNCVF	0.426 ± 0.5
VGRMPNGYVVGINIGLSRRL	-0.696 ± 1.7
VGRNNASLHSDKNRWFGFGF	1.49 ± 0.18
VGRTNFYCYWFPCRSLDLLS	5.8 ± 0.046
VGSCCNQ	7.591 ± 0.046
VGSKVYMTSAAMYFVNRGFV	6.11 ± 0.081
VHIFCSTTCFFMNFMLIQNK	-0.045 ± 0.51
VHNTRYSHVPNKKMRSVIRK	1.44 ± 0.42
VHTINRTQLYNIH	-0.215 ± 0.65
VHWLNCRLLGSLWVVGANWL	inactive
VICFWTLSRFYRGRD	-1.13 ± 0.62
VIGKMDEVGSIVEFDSGIRV	0.658 ± 0.47
VIIRIIKFTCNSSLIIITKW	0.694 ± 0.49
VIIRRWHIVFCSRFMFPCNF	0.297 ± 0.64

Substance	amyloid nucleation score
VIPKGPSKTLNNFWYYAYHS	-0.327 ± 0.79
VIPVFRGSSFA	-0.055 ± 0.66
VISIGIGMDTTTRVGQMYMK	-0.115 ± 1.4
VISPNSLTCCAH	-0.146 ± 0.93
VITWEWFRFRRRFGKMEGCL	1.24 ± 0.28
VKFCCFGLLCELYSGHSGRM	1.33 ± 0.15
VKFMMRLDYYCPLSTVQTTA	-0.644 ± 0.36
VKLLYVIISYVRVCCRMDQI	-0.501 ± 0.54
VKPLKHPSGYYAMRRFVYNI	-0.566 ± 1.2
VKSGS	0.21 ± 0.24
VKTHSVFSMMVV	0.558 ± 0.51
VLCLHWWLRTILGPLLAYAN	inactive
VLCPW	-0.283 ± 0.44
VLDGVNNNILLCLISRWGVL	4.46 ± 0.079
VLDMKFKYNVPSLK	5.41 ± 0.06
VLFESIRWMSG	-0.142 ± 1.1
VLGTLSMFYFRAYFRPAWLS	-0.278 ± 0.5
VLISENNITNHNSHECLVCY	-1.02 ± 1.7
VLIWPGRRNSARSYWSSSGL	1.21 ± 0.66
VLKDFYNDDKRFQRRL	0.421 ± 0.3
VLKTWVIDNKSVGEMCNLNG	0.556 ± 0.85
VLLIPMTKAKMKMSIW	0.584 ± 0.34
